According to US20110059079A1 (XOMA TECHNOLOGY, published 2011):

Columns and labels:
Test in all cases: ELISA on plate-coated toxin domain
[1] = target: BoNT/A light-chain heavy-chain N-terminus (LCHN) domain (UniProt P0DPI0 1-870)
[2] = target: BoNT/A heavy-chain C-terminus (HCC) domain (UniProt P0DPI0 1093-1296)
[3] = target: BoNT/A heavy-chain N-terminus (HCN) domain (UniProt P0DPI0 871-1092)
Chain of BoNT/A heavy-chain N-terminus (HCN) domain (P0DPI0 871-1092 limits assumed): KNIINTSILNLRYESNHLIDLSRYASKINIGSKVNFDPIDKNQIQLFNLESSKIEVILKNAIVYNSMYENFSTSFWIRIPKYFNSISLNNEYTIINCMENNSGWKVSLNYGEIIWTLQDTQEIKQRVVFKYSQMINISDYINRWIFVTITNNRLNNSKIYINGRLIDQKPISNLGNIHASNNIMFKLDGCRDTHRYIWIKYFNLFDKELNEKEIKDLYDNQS

Chain of BoNT/A heavy-chain C-terminus (HCC) domain (P0DPI0 1093-1296 limits assumed): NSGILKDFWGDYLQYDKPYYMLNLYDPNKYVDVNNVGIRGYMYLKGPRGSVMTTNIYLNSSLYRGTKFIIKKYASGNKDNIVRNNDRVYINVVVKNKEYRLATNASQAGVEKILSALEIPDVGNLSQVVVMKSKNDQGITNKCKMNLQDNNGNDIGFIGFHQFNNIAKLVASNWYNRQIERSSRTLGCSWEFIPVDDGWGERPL
Chain of BoNT/A light-chain heavy-chain N-terminus (LCHN) domain (P0DPI0 1-870 limits assumed): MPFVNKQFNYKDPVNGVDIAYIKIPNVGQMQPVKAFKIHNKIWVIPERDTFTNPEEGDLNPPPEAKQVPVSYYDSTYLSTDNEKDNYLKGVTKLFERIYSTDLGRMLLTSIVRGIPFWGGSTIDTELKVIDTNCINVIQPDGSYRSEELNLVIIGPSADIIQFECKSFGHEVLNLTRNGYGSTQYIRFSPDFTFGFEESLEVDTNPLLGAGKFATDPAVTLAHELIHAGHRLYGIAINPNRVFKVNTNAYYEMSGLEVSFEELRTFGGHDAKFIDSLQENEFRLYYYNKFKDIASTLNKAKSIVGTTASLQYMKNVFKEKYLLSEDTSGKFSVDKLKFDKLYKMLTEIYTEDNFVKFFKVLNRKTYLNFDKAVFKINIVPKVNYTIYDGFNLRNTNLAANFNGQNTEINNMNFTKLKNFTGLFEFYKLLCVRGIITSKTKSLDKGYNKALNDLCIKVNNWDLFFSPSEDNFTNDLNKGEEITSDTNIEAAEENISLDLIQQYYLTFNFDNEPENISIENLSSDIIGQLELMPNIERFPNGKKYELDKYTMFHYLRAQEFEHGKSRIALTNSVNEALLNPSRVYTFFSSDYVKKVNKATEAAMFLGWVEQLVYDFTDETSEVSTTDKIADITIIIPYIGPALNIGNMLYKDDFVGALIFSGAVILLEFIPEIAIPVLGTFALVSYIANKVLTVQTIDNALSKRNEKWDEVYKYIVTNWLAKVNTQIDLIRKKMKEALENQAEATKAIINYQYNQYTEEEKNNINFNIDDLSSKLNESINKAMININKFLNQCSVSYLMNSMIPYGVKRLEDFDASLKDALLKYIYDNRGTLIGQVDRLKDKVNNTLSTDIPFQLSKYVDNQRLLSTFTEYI

Row | Binder | binding result [1] | binding result [2] | binding result [3]
1 | ABT01 (antibody, V domains shown) VH: QVQLQQSGGGLVQPGGSLRLSCAASGFTFKYDYMYWIRQAPGKGLEWVATISDGGSYTYYSDSVEGRFTTSRDNSKNTLYLQMNSLRAEDTAIYYCSRYRYDDAMDYWGQGTLVTVSS VL: EIVLTQSPATLSLSPGERATISCRASESVDSYGHSFMQWYQQKPGQAPRLLIYRASNLEPGIPARFSGSGSGTDFTLTISSLEPEDFAVYYCQQGNEVPFTFGQGTKVEIK | no binding | no binding | –
2 | ABT03 (antibody, V domains shown) VH: QVQLQQSGGGLVQPGGSLRLSCAASGFTFSNYAMTWVRQAPGKGLEWVSSISVGGSDTYYADSVKGRFTVSRDNSKNTLLLQMNSLRAEDTAVYYCAKVRTKYCSSLSCFAGFDSWGQGTRVTVSS VL: DVVMTQSPSSLSASVGDRVTITCRASQSISSYLHWYQQKPGKAPTLLISDASSSQSGVPSRFSGSRFGTDFTLTISSLQPEDFATYYCQQSYSTRALTFGGGTKVEIK | – | no binding | no binding
3 | ABT02 (antibody, V domains shown) VH: QVQLVQSGGGVVHPGRSLKLSCAGSGFTFSDYDMHWVRQAPGKGLEWVAVMWFDGTEKYSAESVKGRFTISRDNSKNTLFLQMNSLRADDTAVYYCAREPDWLLWGDRGALDVWGQGTTVTVSS VL: DIVMTQSPSTLSASVGDRVTITCWASQSISSRLAWYQQKPGKAPKLLMYEATSLGSGVPSRFSGSGSGTEFTLTISSLQPDDFAAYYCQHYDTYPYTFGQGTKLEIK | no binding | – | no binding
